Source: US5854216A, “Marker for growth hormone-releasing factor receptors” (Universite de Montreal, priority 1996, dated 1998)
Square brackets hold non-standard residues; d marks the D form. Peptide text beside a SMILES is read from it.

These compounds were tested against T1, GRF receptors ([^125 I-Tyr^10 ]hGRF(1-44)NH2 binding sites in rat adenopituitary) (Rattus norvegicus, UniProt Q02644) (assay: Competitive binding assay with [^125 I-Tyr^10 ]hGRF(1-44)NH2 on anterior pituitary homogenates). Conditions: Table 11.
T1 construct: from tissue; host or cells: rat anterior pituitary homogenate
T1 sequence (Q02644 23-423 isoform Q02644-2 limits assumed): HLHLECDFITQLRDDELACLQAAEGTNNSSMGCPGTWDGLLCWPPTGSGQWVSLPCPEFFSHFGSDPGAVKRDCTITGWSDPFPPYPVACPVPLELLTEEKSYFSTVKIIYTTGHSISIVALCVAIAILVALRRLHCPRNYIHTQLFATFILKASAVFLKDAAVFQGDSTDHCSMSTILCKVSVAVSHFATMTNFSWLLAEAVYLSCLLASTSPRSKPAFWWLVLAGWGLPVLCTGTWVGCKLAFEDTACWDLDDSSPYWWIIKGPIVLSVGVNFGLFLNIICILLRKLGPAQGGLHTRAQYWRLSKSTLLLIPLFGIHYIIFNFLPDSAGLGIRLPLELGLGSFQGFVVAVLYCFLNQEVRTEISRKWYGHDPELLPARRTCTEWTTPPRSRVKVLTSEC
Protocol: The binding of [^125 I-Tyr^10 ]hGRF(1-44)NH2 was performed on anterior pituitary homogenates as previously described (Gaudreau P. et al., J. Biol. Chem., 1992, 35:1864-1869). Briefly, anterior pituitaries (pit.) were dissected out, rinsed and homogenized for 8 sec with a Micro Ultrasonic Cell Disrupter™, in ice-cold 50 mM Tris-HCl buffer, pH 7.4, containing 5 mM MgCl2 and 5 mM EDTA (1 pit./0.5 ml). These homogenates were used immediately. Competition studies were performed using 35-50 pM [^125 I-Tyr^10 ]hGRF(1-44)NH2 as radio-ligand,50 μl of homogenate (70 to 75 μg of protein), and increasing concentrations of Nε-CF-[Lys^31 ]hGRF or other GRF analogues (0-1000 nM) or with 2.4 μM rGRF(1-29)NH2 for determination of non-specific binding, in a total volume of 300 μl of Tris-HCl buffer, pH 7.4, containing 5 mM EDTA, 5 mM MgCl2 and 0.42% BSA. Incubations were carried out at 23° C. for 60 min and stopped by centrifugation (12,000 g, 5 min, at 4° C.). The radioactivity content in the pellet was measured by gamma counting. The affinity of hGRF(1-29)NH2 was tested in each experiment to assess the validity of the assay and determine the relative affinity of the analogues. […] The Hill values indicate that all these peptides bind to the high and low affinity GRF binding sites found in the anterior pituitary.

Row | Compound | Hill coef.
1 | CC[C@H](C)[C@H](NC(=O)[C@H](C)NC(=O)[C@H](CC(=O)O)NC(=O)[C@@H](C)NC(=O)[C@@H](N)Cc1ccc(O)cc1)C(=O)N[C@@H](Cc1ccccc1)C(=O)N[C@H](C(=O)N[C@@H](CC(N)=O)C(=O)N[C@@H](CO)C(=O)N[C@H](Cc1ccc(O)cc1)C(=O)N[C@@H](CCCNC(=N)N)C(=O)N[C@@H](CCCCN)C(=O)N[C@H](C(=O)N[C@@H](CC(C)C)C(=O)NCC(=O)N[C@@H](CCC(N)=O)C(=O)N[C@@H](CC(C)C)C(=O)N[C@@H](CO)C(=O)N[C@@H](C)C(=O)N[C@@H](CCCNC(=N)N)C(=O)N[C@@H](CCCCN)C(=O)N[C@@H](CC(C)C)C(=O)N[C@@H](CC(C)C)C(=O)N[C@@H](CCC(N)=O)C(=O)N[C@@H](CC(=O)O)C(=O)N[C@H](C(=O)N[C@@H](CCSC)C(=O)N[C@@H](CO)C(=O)N[C@@H](CCCNC(=N)N)C(N)=O)[C@@H](C)CC)C(C)C)[C@@H](C)O [D-Ala^2, D-Tyr^10] | 0.41 ± 0.02
2 | CC[C@H](C)[C@H](NC(=O)[C@H](C)NC(=O)[C@H](CC(=O)O)NC(=O)[C@@H](C)NC(=O)[C@@H](N)Cc1ccc(O)cc1)C(=O)N[C@@H](Cc1ccccc1)C(=O)N[C@H](C(=O)N[C@@H](C)C(=O)N[C@@H](CO)C(=O)N[C@H](Cc1ccc(O)cc1)C(=O)N[C@@H](CCCNC(=N)N)C(=O)N[C@@H](CCCCN)C(=O)N[C@H](C(=O)N[C@@H](CC(C)C)C(=O)N[C@@H](C)C(=O)N[C@@H](CCC(N)=O)C(=O)N[C@@H](CC(C)C)C(=O)N[C@@H](CO)C(=O)N[C@@H](C)C(=O)N[C@@H](CCCNC(=N)N)C(=O)N[C@H](CCCCN)C(=O)N[C@@H](CCCCN)C(=O)N[C@@H](CC(C)C)C(=O)N[C@@H](CCC(N)=O)C(=O)N[C@@H](CC(=O)O)C(=O)N[C@H](C(=O)N[C@@H](CCSC)C(=O)N[C@@H](CO)C(=O)N[C@@H](CCCNC(=N)N)C(N)=O)[C@@H](C)CC)C(C)C)[C@@H](C)O (H-Y[dA]DAIFTAS[dY]RKVLAQLSAR[dK]KLQDIMSR-NH2) | 0.63 ± 0.07
3 | CC[C@H](C)[C@H](NC(=O)[C@H](C)NC(=O)[C@H](CC(=O)O)NC(=O)[C@@H](C)NC(=O)[C@@H](N)Cc1ccc(O)cc1)C(=O)N[C@@H](Cc1ccccc1)C(=O)N[C@H](C(=O)N[C@@H](CC(N)=O)C(=O)N[C@@H](CO)C(=O)N[C@H](Cc1ccc(O)cc1)C(=O)N[C@@H](CCCNC(=N)N)C(=O)N[C@@H](CCCCN)C(=O)N[C@H](C(=O)N[C@@H](CC(C)C)C(=O)NCC(=O)N[C@@H](CCC(N)=O)C(=O)N[C@@H](CC(C)C)C(=O)N[C@@H](CO)C(=O)N[C@@H](C)C(=O)N[C@@H](CCCNC(=N)N)C(=O)N[C@H](CCCCN)C(=O)N[C@@H](CC(C)C)C(=O)N[C@@H](CC(C)C)C(=O)N[C@@H](CCC(N)=O)C(=O)N[C@@H](CC(=O)O)C(=O)N[C@H](C(=O)N[C@@H](CCSC)C(=O)N[C@@H](CO)C(=O)N[C@@H](CCCNC(=N)N)C(N)=O)[C@@H](C)CC)C(C)C)[C@@H](C)O [D-Ala^2, D-Tyr^10, D-Lys^21] | 0.64 ± 0.05

Same assay, conditions: Table 11; ratio IC50 of hGRF(1-29)NH2 /IC50 analogue

Row | Compound | Relative affinity [%]
4 | CC[C@H](C)[C@H](NC(=O)[C@H](C)NC(=O)[C@H](CC(=O)O)NC(=O)[C@@H](C)NC(=O)[C@@H](N)Cc1ccc(O)cc1)C(=O)N[C@@H](Cc1ccccc1)C(=O)N[C@H](C(=O)N[C@@H](CC(N)=O)C(=O)N[C@@H](CO)C(=O)N[C@H](Cc1ccc(O)cc1)C(=O)N[C@@H](CCCNC(=N)N)C(=O)N[C@@H](CCCCN)C(=O)N[C@H](C(=O)N[C@@H](CC(C)C)C(=O)NCC(=O)N[C@@H](CCC(N)=O)C(=O)N[C@@H](CC(C)C)C(=O)N[C@@H](CO)C(=O)N[C@@H](C)C(=O)N[C@@H](CCCNC(=N)N)C(=O)N[C@@H](CCCCN)C(=O)N[C@@H](CC(C)C)C(=O)N[C@@H](CC(C)C)C(=O)N[C@@H](CCC(N)=O)C(=O)N[C@@H](CC(=O)O)C(=O)N[C@H](C(=O)N[C@@H](CCSC)C(=O)N[C@@H](CO)C(=O)N[C@@H](CCCNC(=N)N)C(N)=O)[C@@H](C)CC)C(C)C)[C@@H](C)O [D-Ala^2, D-Tyr^10] | 25 ± 3
5 | CC[C@H](C)[C@H](NC(=O)[C@H](C)NC(=O)[C@H](CC(=O)O)NC(=O)[C@@H](C)NC(=O)[C@@H](N)Cc1ccc(O)cc1)C(=O)N[C@@H](Cc1ccccc1)C(=O)N[C@H](C(=O)N[C@@H](C)C(=O)N[C@@H](CO)C(=O)N[C@H](Cc1ccc(O)cc1)C(=O)N[C@@H](CCCNC(=N)N)C(=O)N[C@@H](CCCCN)C(=O)N[C@H](C(=O)N[C@@H](CC(C)C)C(=O)N[C@@H](C)C(=O)N[C@@H](CCC(N)=O)C(=O)N[C@@H](CC(C)C)C(=O)N[C@@H](CO)C(=O)N[C@@H](C)C(=O)N[C@@H](CCCNC(=N)N)C(=O)N[C@H](CCCCN)C(=O)N[C@@H](CCCCN)C(=O)N[C@@H](CC(C)C)C(=O)N[C@@H](CCC(N)=O)C(=O)N[C@@H](CC(=O)O)C(=O)N[C@H](C(=O)N[C@@H](CCSC)C(=O)N[C@@H](CO)C(=O)N[C@@H](CCCNC(=N)N)C(N)=O)[C@@H](C)CC)C(C)C)[C@@H](C)O (H-Y[dA]DAIFTAS[dY]RKVLAQLSAR[dK]KLQDIMSR-NH2) | 500 ± 91
6 | CC[C@H](C)[C@H](NC(=O)[C@H](C)NC(=O)[C@H](CC(=O)O)NC(=O)[C@@H](C)NC(=O)[C@@H](N)Cc1ccc(O)cc1)C(=O)N[C@@H](Cc1ccccc1)C(=O)N[C@H](C(=O)N[C@@H](CC(N)=O)C(=O)N[C@@H](CO)C(=O)N[C@H](Cc1ccc(O)cc1)C(=O)N[C@@H](CCCNC(=N)N)C(=O)N[C@@H](CCCCN)C(=O)N[C@H](C(=O)N[C@@H](CC(C)C)C(=O)NCC(=O)N[C@@H](CCC(N)=O)C(=O)N[C@@H](CC(C)C)C(=O)N[C@@H](CO)C(=O)N[C@@H](C)C(=O)N[C@@H](CCCNC(=N)N)C(=O)N[C@H](CCCCN)C(=O)N[C@@H](CC(C)C)C(=O)N[C@@H](CC(C)C)C(=O)N[C@@H](CCC(N)=O)C(=O)N[C@@H](CC(=O)O)C(=O)N[C@H](C(=O)N[C@@H](CCSC)C(=O)N[C@@H](CO)C(=O)N[C@@H](CCCNC(=N)N)C(N)=O)[C@@H](C)CC)C(C)C)[C@@H](C)O [D-Ala^2, D-Tyr^10, D-Lys^21] | 21 ± 11

Same assay, conditions: rat adenopituitary

Row | Compound | biological activity compared to that of native GRF
7 | CC[C@H](C)[C@H](NC(=O)[C@H](C)NC(=O)[C@H](CC(=O)O)NC(=O)[C@@H](C)NC(=O)[C@@H](N)Cc1ccc(O)cc1)C(=O)N[C@@H](Cc1ccccc1)C(=O)N[C@H](C(=O)N[C@@H](CC(N)=O)C(=O)N[C@@H](CO)C(=O)N[C@H](Cc1ccc(O)cc1)C(=O)N[C@@H](CCCNC(=N)N)C(=O)N[C@@H](CCCCN)C(=O)N[C@H](C(=O)N[C@@H](CC(C)C)C(=O)NCC(=O)N[C@@H](CCC(N)=O)C(=O)N[C@@H](CC(C)C)C(=O)N[C@@H](CO)C(=O)N[C@@H](C)C(=O)N[C@@H](CCCNC(=N)N)C(=O)N[C@@H](CCCCN)C(=O)N[C@@H](CC(C)C)C(=O)N[C@@H](CC(C)C)C(=O)N[C@@H](CCC(N)=O)C(=O)N[C@@H](CC(=O)O)C(=O)N[C@H](C(=O)N[C@@H](CCSC)C(=O)N[C@@H](CO)C(=O)N[C@@H](CCCNC(=N)N)C(N)=O)[C@@H](C)CC)C(C)C)[C@@H](C)O [D-Ala^2, D-Tyr^10] | preserved or increased
8 | CC[C@H](C)[C@H](NC(=O)[C@H](C)NC(=O)[C@H](CC(=O)O)NC(=O)[C@@H](C)NC(=O)[C@@H](N)Cc1ccc(O)cc1)C(=O)N[C@@H](Cc1ccccc1)C(=O)N[C@H](C(=O)N[C@@H](CC(N)=O)C(=O)N[C@@H](CO)C(=O)N[C@H](Cc1ccc(O)cc1)C(=O)N[C@@H](CCCNC(=N)N)C(=O)N[C@@H](CCCCN)C(=O)N[C@H](C(=O)N[C@@H](CC(C)C)C(=O)NCC(=O)N[C@@H](CCC(N)=O)C(=O)N[C@@H](CC(C)C)C(=O)N[C@@H](CO)C(=O)N[C@@H](C)C(=O)N[C@@H](CCCNC(=N)N)C(=O)N[C@H](CCCCN)C(=O)N[C@@H](CC(C)C)C(=O)N[C@@H](CC(C)C)C(=O)N[C@@H](CCC(N)=O)C(=O)N[C@@H](CC(=O)O)C(=O)N[C@H](C(=O)N[C@@H](CCSC)C(=O)N[C@@H](CO)C(=O)N[C@@H](CCCNC(=N)N)C(N)=O)[C@@H](C)CC)C(C)C)[C@@H](C)O [D-Ala^2, D-Tyr^10, D-Lys^21] | preserved or increased

These compounds were tested against T2, GRF receptor of rat adenopituitary (rat, UniProt Q02644-2) (assay: displacement of 125I-Tyr10 hGRF(1-44)NH2 from rat anterior pituitary homogenate). Conditions: not given.
T2 sequence: T1 sequence (Q02644 23-423 isoform Q02644-2 limits assumed)

Row | Compound | IC50 [nM] | Relative affinity (%) against hGRF(1-29)NH2 [%]
9 | D-Ala^2,D-Tyr^10 ! hGRF(1-29)NH2 (from UniProt P01286) (peptide) | 9.65 | 25
10 | D-Ala^2, D-Tyr^10,D-Ala^15,Lys^22 ! hGRF(1-29)NH2 (from UniProt P01286) (peptide) |  | 104
11 | npa^6 analogue of hGRF(1-29)NH2 (Table 7, number 8) (from UniProt P01286) (peptide) | 30.9 | 8.6
12 | npa^2 analogue of hGRF(1-29)NH2 (Table 7, number 4) (from UniProt P01286) (peptide) | 751 | 0.3
13 | bpa^4 analogue of hGRF(1-29)NH2 (Table 7, number 14) (from UniProt P01286) (peptide) | 64.7 | 4
14 | D-Ala^2,D-Tyr^10, D-Lys^21 ! hGRF(1-29)NH2 (from UniProt P01286) (peptide) | 11.6 | 21
15 | bpa^9 analogue of hGRF(1-29)NH2 (Table 7, number 15) (from UniProt P01286) (peptide) | 28.4 | 9
16 | 4'-nitro-phenylalanine^10 !hGRF(1-29)NH2 (from UniProt P01286) (peptide) | 4.43 | 60
17 | bpa^0 analogue of hGRF(1-29)NH2 (Table 7, number 13) (from UniProt P01286) (peptide) | 34.5 | 8
18 | npa^8 analogue of hGRF(1-29)NH2 (Table 7, number 10) (from UniProt P01286) (peptide) | 54.1 | 5
